According to the Immune Epitope Database (IEDB):
pKd: −log10 of the molar value. Values belong to the sequence of their own block, whether it stands above or below them.

Columns and labels:
HLA-B*83:01 = test: IEDB peptide-MHC binding, purified MHC/competitive/fluorescence; filed as Kd, often an IC50 or EC50 that approximates it; ≥ and ≤ were set here for values at or beyond the usual limits of such assays
HLA-A*32:15 = test: as above; conditions: source organism: Mus musculus
HLA-B*15:42 = test: as above
HLA-A*03:19 = test: as above
HLA-C*06:02 [1] = test: as above
HLA-A*68:23 = test: as above; conditions: source organism: Mus musculus
HLA-B*45:06 = test: as above
HLA-A*01:01 = test: IEDB peptide-MHC binding, purified MHC/direct/fluorescence; filed as Kd, often an IC50 or EC50 that approximates it; ≥ and ≤ were set here for values at or beyond the usual limits of such assays
HLA-A*80:01 = test: as above
HLA-C*05:01 = test: as above; conditions: source organism: Yersinia pestis Nepal516
HLA-C*14:02 = test: as above
HLA-C*06:02 [2] = test: as above; conditions: source organism: Yersinia pestis Nepal516
HLA-C*15:02 = test: as above
HLA-A*02:01 [3] = test: IEDB peptide-MHC binding, purified MHC/competitive/fluorescence; filed as Kd, often an IC50 or EC50 that approximates it; ≥ and ≤ were set here for values at or beyond the usual limits of such assays
HLA-A*32:07 = test: as above
HLA-B*27:05 = test: as above
HLA-B*27:20 = test: as above
HLA-B*39:01 = test: as above
HLA-A*31:01 = test: as above
HLA-C*07:02 = test: IEDB peptide-MHC binding, purified MHC/direct/fluorescence; filed as Kd, often an IC50 or EC50 that approximates it; ≥ and ≤ were set here for values at or beyond the usual limits of such assays; conditions: source organism: Escherichia coli O157:H7 str. EDL933
HLA-B*58:01 = test: IEDB peptide-MHC binding, purified MHC/competitive/fluorescence; filed as Kd, often an IC50 or EC50 that approximates it; ≥ and ≤ were set here for values at or beyond the usual limits of such assays
HLA-B*40:13 = test: as above; conditions: source organism: Escherichia coli O157:H7 str. EDL933
HLA-A*02:01 [4] = test: IEDB peptide-MHC binding, purified MHC/direct/fluorescence; filed as Kd, often an IC50 or EC50 that approximates it; ≥ and ≤ were set here for values at or beyond the usual limits of such assays; conditions: source organism: Giardia lamblia ATCC 50803
HLA-A*69:01 [5] = test: as above; conditions: source organism: Giardia lamblia ATCC 50803
HLA-A*02:16 [6] = test: as above; conditions: source organism: Giardia lamblia ATCC 50803
HLA-A*02:12 [7] = test: as above; conditions: source organism: Giardia lamblia ATCC 50803
HLA-A*02:50 = test: IEDB peptide-MHC binding, purified MHC/competitive/fluorescence; filed as Kd, often an IC50 or EC50 that approximates it; ≥ and ≤ were set here for values at or beyond the usual limits of such assays
HLA-A*02:06 = test: as above; conditions: source organism: Encephalitozoon cuniculi GB-M1
HLA-A*69:01 [8] = test: as above; conditions: source organism: Encephalitozoon cuniculi GB-M1
HLA-A*02:03 = test: as above; conditions: source organism: Encephalitozoon cuniculi GB-M1
HLA-A*02:16 [9] = test: as above; conditions: source organism: Encephalitozoon cuniculi GB-M1
HLA-A*02:12 [10] = test: as above; conditions: source organism: Encephalitozoon cuniculi GB-M1
HLA-A*02:19 = test: as above; conditions: source organism: Encephalitozoon cuniculi GB-M1
HLA-A*02:11 = test: as above; conditions: source organism: Encephalitozoon cuniculi GB-M1
[11] = source organism: Mammarenavirus lassaense
[12] = source organism: Camelpox virus M-96
[13] = source organism: Yersinia pestis Nepal516
[14] = source organism: Escherichia coli O157:H7 str. EDL933
[15] = source organism: Encephalitozoon cuniculi GB-M1

pKd (HLA-B*83:01; source organism: Mus musculus): ≤ 5.30
pKd (HLA-A*32:15): ≤ 4.70
pKd (HLA-B*15:42; source organism: Mus musculus): ≤ 5.30
pKd (HLA-A*03:19; source organism: Mus musculus): 5.49
pKd (HLA-C*06:02 [1]; source organism: Mus musculus): 5.87
pKd (HLA-A*68:23): 7.64
pKd (HLA-B*45:06; source organism: Mus musculus): ≤ 5.30
Sequence: GVPKTHLEL

Sequence: ALTDLGLIY
pKd (HLA-A*01:01; [11]): 7.46
pKd (HLA-A*80:01; [11]): 8.74

Sequence: NRDGDSYYY
pKd (HLA-A*80:01; source organism: Yellow fever virus): 6.32

Sequence: MTDLSKKGY
pKd (HLA-A*01:01; [12]): 8.55
pKd (HLA-A*80:01; [12]): ≤ 4.70

Sequence: RAMRMVYYL
pKd (HLA-C*05:01): 6.91
pKd (HLA-C*14:02; [13]): 6.02
pKd (HLA-C*06:02 [2]): 6.10
pKd (HLA-C*15:02; [13]): 7.47
pKd (HLA-A*02:01 [3]; [13]): 9.10
pKd (HLA-B*83:01; [13]): ≤ 5.30
pKd (HLA-B*15:42; [13]): ≤ 5.30
pKd (HLA-A*32:07; [13]): 7.11
pKd (HLA-B*27:05; [13]): 6.80
pKd (HLA-B*27:20; [13]): 7.85
pKd (HLA-A*03:19; [13]): 6.69
pKd (HLA-B*39:01; [13]): 6.38
pKd (HLA-A*31:01; [13]): 8.40
pKd (HLA-B*45:06; [13]): ≤ 5.30

pKd (HLA-C*07:02): 6.07
pKd (HLA-C*14:02; [14]): 5.63
pKd (HLA-C*15:02; [14]): 5.68
pKd (HLA-A*02:01 [3]; [14]): 8.70
pKd (HLA-B*83:01; [14]): ≤ 5.30
pKd (HLA-B*15:42; [14]): ≤ 5.30
pKd (HLA-A*32:07; [14]): 8.96
pKd (HLA-B*58:01; [14]): 7.77
pKd (HLA-B*27:20; [14]): 7.47
pKd (HLA-A*03:19; [14]): 6.05
pKd (HLA-B*39:01; [14]): 5.66
pKd (HLA-A*31:01; [14]): 8.68
pKd (HLA-C*06:02 [1]; [14]): 6.10
pKd (HLA-B*40:13): 8.49
pKd (HLA-B*45:06; [14]): ≤ 5.30
Sequence: RMMGVKYLM

Sequence: GMNPYHLAA
pKd (HLA-A*02:01 [4]): 5.36
pKd (HLA-A*69:01 [5]): ≤ 4.70
pKd (HLA-A*02:16 [6]): 7.19
pKd (HLA-A*02:12 [7]): 6.53
pKd (HLA-A*02:50; source organism: Giardia lamblia ATCC 50803): 7.90

Sequence: VSLGAISFW
pKd (HLA-B*58:01; source organism: Influenza A virus (A/Leningrad/1954/1(H1N1))): ≥ 9.00

pKd (HLA-A*02:01 [3]; [15]): 6.18
pKd (HLA-A*02:06): 8.06
pKd (HLA-A*69:01 [8]): 5.24
pKd (HLA-A*02:03): 7.54
pKd (HLA-A*02:16 [9]): 8.17
pKd (HLA-A*02:50; [15]): 7.91
pKd (HLA-A*02:12 [10]): 7.37
pKd (HLA-A*02:19): 6.36
pKd (HLA-A*02:11): 8.54
Sequence: ALEEGRKYV

pKd (HLA-B*27:05; source organism: Escherichia coli 536): ≤ 4.70
Sequence: GKVERMVQY
